Read-outs that look alike come from different tables or passages of the source.
B1: 2-5 (antibody, V domains shown)
VH: EVQLLESGGGLVQPGGSLRLSCAASGFTFSDFAMAWVRQAPGKGLEWVSAISGSGDITYYADSVKGRFTISRDNSKNTLYLQMNSLRAEDTAVYYCAREADGLHSPWHFDLWGQGTLVTVSS
VL: DIQMTQSPSSLSASVGDRVTITCRASQSIHTYLNWYQQKPGKAPKLLIYAASALASGVPSRFSGSGSGTDFTLTISSLQPEDFATYYCQQSYSAPPYTFGQGTKVEIK
B2: 6-42 (Fc fusion)
chain: EVQLVESGGGLVQPGGSLRLSCAASGDTYGSYWMGWFRQAPGKEREFVAVITSGGSTNYADSVKGRFTISADNSKNTAYLQMNSLKPEDTAVYYCTHVQNSYYYAMDVWGQGTLVTVSS
B3: 5-1 (Fc fusion)
chain: EVQLVESGGGLVQPGGSLRLSCAASGGTFSSIGMGWFRQAPGKEREFVAAISWDGGATAYADSVKGRFTISADNSKNTAYLQMNSLKPEDTAVYYCAKEDVGKPFDWGQGTLVTVSS
B4: 6-63 (Fc fusion)
chain: EVQLVESGGGLVQPGGSLRLSCAASGQTFNMGWFRQAPGKEREFVAAIGSGGSTSYADSVKGRFTISADNSKNTAYLQMNSLKPEDTAVYYCWRLGNDYFDYWGQGTLVTVSS
B5: 6-3 (Fc fusion)
chain: EVQLVESGGGLVQPGGSLRLSCAASGFTFSPSWMGWFRQAPGKEREFVATINEYGGRNYADSVKGRFTISADNSKNTAYLQMNSLKPEDTAVYYCARVDRDFDYWGQGTLVTVSS
B6: 2-2 (antibody, V domains shown)
VH: EVQLLESGGGLVQPGGSLRLSCAASGFTFSRHAMNWVRQAPGKGLEWVSGISGSGDETYYADSVKGRFTISRDNSKNTLYLQMNSLRAEDTAVYYCARDLPASYYDSSGYYWHNGMDVWGQGTLVTVSS
VL: DIQMTQSPSSLSASVGDRVTITCRASQTINTYLNWYQQKPGKAPKLLIYSASTLQSGVPSRFSGSGSGTDFTLTISSLQPEDFATYYCQQSYSTFTFGQGTKVEIK

Key:
[1] = molecular target: T1, S1 domain of SARS-CoV S protein (SARS-CoV, UniProt P59594 14-667); test: cross-binding assay on the S1 domain of SARS-CoV S protein
T1 construct: domain: S1

SARS-CoV-2 S1 [2] = molecular target: T2, SARS-CoV-2 S1 (SARS-CoV-2, UniProt P0DTC2 16-685); test: SPR
T2 construct: range 16-685

[3] = molecular target: T1, S1 domain of SARS-CoV S protein; test: SPR
SARS-CoV-2 S1 [4] = molecular target: T2, SARS-CoV-2 S1; test: SPR; remark: listed apart in the source

Binder	Kd (SARS-CoV-2 S1 [2])	binding result [3]	Kd (SARS-CoV-2 S1 [4])	other results
B1				binding result [1]: binds
B2				binding result (SARS-CoV-2 S1 [2]): binds
B3	6.6 nM			
B4	46 nM	no binding	65 nM	
B5	32 nM	no binding	11 nM	
B6	21 nM			
